Test results reported in PMC7603442, “Tracking a TGF-β activator in vivo: sensitive PET imaging of αvβ8-integrin with the Ga-68-labeled cyclic RGD octapeptide trimer Ga-68-Triveoctin” (EJNMMI Research, 2020).
Like-named read-outs stand apart in the source and are kept apart here. Starred links: 1 amine or outer side, 2 acyl side, 3 side chain; linkers in the order of their positions; H or OH if unused. Positions of bridges follow the written chain, without caps; N, C: chain ends. Non-standard residues stand in square brackets, D forms with d. Residues, ends and D or L forms follow the SMILES beside them. Chains are numbered I, II in the order given. *: point of attachment. X1 = O=C(CCP(=O)(O)CN1CCN(CP(=O)(O)CCC(=O)NCCCn2cc(CCC(=O)[*:2])nn2)CCN(CP(=O)(O)CCC(=O)NCCCn2cc(CCC(=O)[*:3])nn2)CC1)NCCCn1cc(CCC(=O)[*:1])nn1; X2 = O=C(O)CCP(=O)(O)CN1CCN(CP(=O)(O)CCC(=O)O)CCN(CP(=O)(O)CCC(=O)NCCCn2cc(CCC(=O)*)nn2)CC1; NMeK = CN[C@@H](CCCCN)C(=O)O; Pent4ynoyl = C#CCCC(=O)*

What was measured:
αvβ8-integrin = αvβ8-integrin (Homo sapiens, UniProt P06756+P26012); experiment: solid-phase binding assay, αvβ8-integrin affinity
Chain of αvβ8-integrin (P06756 31-992 limits assumed): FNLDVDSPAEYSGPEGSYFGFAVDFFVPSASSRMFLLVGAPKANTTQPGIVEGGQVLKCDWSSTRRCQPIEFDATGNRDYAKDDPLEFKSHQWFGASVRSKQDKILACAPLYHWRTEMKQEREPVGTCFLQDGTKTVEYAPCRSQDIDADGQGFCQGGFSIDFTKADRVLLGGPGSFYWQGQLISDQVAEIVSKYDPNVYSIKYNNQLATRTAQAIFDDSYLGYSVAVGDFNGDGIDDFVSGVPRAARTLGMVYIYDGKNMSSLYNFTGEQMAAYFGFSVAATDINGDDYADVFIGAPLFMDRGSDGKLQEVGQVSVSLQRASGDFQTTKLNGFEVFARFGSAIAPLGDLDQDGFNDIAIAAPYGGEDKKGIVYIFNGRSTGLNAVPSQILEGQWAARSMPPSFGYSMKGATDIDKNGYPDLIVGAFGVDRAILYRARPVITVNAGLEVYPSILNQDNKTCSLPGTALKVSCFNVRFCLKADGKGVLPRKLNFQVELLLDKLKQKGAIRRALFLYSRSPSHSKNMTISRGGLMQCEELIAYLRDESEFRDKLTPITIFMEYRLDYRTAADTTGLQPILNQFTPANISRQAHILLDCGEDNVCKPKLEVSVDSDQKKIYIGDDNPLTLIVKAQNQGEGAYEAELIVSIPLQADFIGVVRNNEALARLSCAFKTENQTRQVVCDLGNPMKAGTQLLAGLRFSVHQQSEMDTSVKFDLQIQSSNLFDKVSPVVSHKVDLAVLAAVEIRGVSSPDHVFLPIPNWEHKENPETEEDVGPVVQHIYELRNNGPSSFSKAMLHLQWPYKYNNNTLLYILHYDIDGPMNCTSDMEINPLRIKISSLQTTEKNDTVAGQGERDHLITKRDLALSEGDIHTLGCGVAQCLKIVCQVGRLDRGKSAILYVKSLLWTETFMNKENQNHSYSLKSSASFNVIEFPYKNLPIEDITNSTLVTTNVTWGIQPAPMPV
Chain of αvβ8-integrin (P26012 43-684 limits assumed): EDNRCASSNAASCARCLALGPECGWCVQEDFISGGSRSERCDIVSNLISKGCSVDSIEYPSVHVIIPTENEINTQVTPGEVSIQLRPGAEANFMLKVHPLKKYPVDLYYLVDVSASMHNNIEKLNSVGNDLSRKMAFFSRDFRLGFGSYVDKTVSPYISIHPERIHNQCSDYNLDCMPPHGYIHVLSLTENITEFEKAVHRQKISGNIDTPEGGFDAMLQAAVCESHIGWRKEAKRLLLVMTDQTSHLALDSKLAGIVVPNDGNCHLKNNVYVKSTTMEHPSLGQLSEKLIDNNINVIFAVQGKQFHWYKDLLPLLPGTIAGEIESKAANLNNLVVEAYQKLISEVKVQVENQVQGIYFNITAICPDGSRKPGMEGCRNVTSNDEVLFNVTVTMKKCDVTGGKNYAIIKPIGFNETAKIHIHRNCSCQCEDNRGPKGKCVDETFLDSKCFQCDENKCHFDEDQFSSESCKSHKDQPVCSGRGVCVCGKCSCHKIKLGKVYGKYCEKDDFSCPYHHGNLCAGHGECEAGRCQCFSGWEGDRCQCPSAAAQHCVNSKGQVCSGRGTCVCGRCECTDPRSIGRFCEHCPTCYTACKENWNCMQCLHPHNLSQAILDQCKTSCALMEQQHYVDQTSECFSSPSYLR
Protocol: (§1) Synthesis and characterization of Triveoctin is described in the Additional file 1. The integrin affinities were determined by a solid-phase binding assay, applying a previously described protocol. β8 immunohistochemistry stainings were done as described. All animal studies have been performed in accordance with general animal welfare regulations in Germany and the institutional guidelines for the care and use of animals. ^68Ga radiolabeling, cultivation of MeWo cells and generation of respective subcutaneous xenografts, determination of n-octanol/phosphate-buffered saline (PBS) distribution coefficients (log D) and ex-vivo biodistribution studies, and µPET imaging were done as described previously in detail (a brief summary is provided in the following).

[1] = system: MeWo (human melanoma) xenografted SCID mice; set-up: method as in PMID 23283986; settings: cited from earlier work
[2] = system: MeWo (human melanoma) xenografted SCID mice; experiment: in vivo; settings: mouse
Protocol: as §1
(§2) MeWo cells (ATCC®, HTB-65™) were grown at 37 °C under 5% CO2 atmosphere in DMEM/HAM (Biochrom, Berlin, Germany) with 10% fetal calf serum (Thermo Fisher). Approx. 10^7 cells were subcutaneously injected with Matrigel® (Corning, #354262) into the right shoulder of 6–8-week-old female CB17 severe combined immunodeficiency (SCID) mice, which were used about 2–3 weeks later for PET and biodistribution.
(§3) Fig. 3 Biodistribution of ^68Ga-Triveoctin, 60 min p.i. (43 ± 13 pmol, n = 6; blockade with 60 nmol Triveoctin injected 5 min prior to the radiopharmaceutical, n = 4) in MeWo-xenografted SCID mice, uptakes expressed as % injected dose per gram tissue; mean ± SD. Data for ^68Ga-TRAP-AvB8 (control: 77 ± 24 pmol, n = 11; blockade: n = 3) were taken from the literature and are shown for comparison. Data in numerical form are given in the Additional file 1: Table S1

in vivo = experiment: in vivo; set-up: species or system mice; settings: female, CB17 SCID, mouse; for tissue uptake at 1 h: 43 pmol
Protocol: as §1, §2, §3

[3] = set-up: species or system human; settings: in vivo
Protocol: (§4) Application of ^68Ga-Triveoctin was done according to §13/2b of the German Drug Act (Arzneimittelgesetz). A human subject received a single intravenous injection of ^68Ga-Triveoctin (173 MBq, approx. 25 µg; for radiolabeling and QC, see Additional file 1). […] 25 min p.i., the patient underwent a list-mode PET/CT imaging protocol on a Biograph Vision 600 (Siemens Healthineers, Knoxville, USA). A standard low-dose CT was acquired from the whole body (X-ray tube current 10 mA, tube voltage 100 kV, spiral pitch factor 1.5, 3.0 mm slice thickness) and used for absolute scatter correction of the subsequent PET scan. The emission PET scan was acquired over 19 min using continuous bed motion with a speed of 2.2 mm s^–1 for the legs and 1.4 mm s^–1 for the remaining body. The PET scan was repeated 45 min p.i. without another CT scan. Another PET/CT imaging sequence was acquired 90 min p.i. as the subject had to leave the scanner for voiding. All scans were obtained during normal breathing. PET images were reconstructed using the TRueX algorithm with 4 iterations, 5 subsets, time-of-flight (TOF) application and without filtering. […] The dosimetry values were calculated using OLINDA V1.1 [24] on the basis of the human PET data.
Assuming that an activity of 100 MBq ^68Ga-Triveoctin is sufficient for a PET scan at 30–60 min p.i., up to 6 investigations could be performed without exceeding the 20 mSv limit.

clinical = settings: human, in vivo
Protocol: Using a fully automated synthesis module, the eluate of a ^68Ge/^68Ga generator (by Eckert & Ziegler, Berlin, Germany; 0.1 M HCl, approx. 500 MBq ^68Ga) was directly eluted into the reaction vial containing Triveoctin (35 µg) and adjusted to pH 4.5 with sodium acetate. After heating for 4 min at 95 °C, the mixture was passed over a solid-phase extraction cartridge (Waters Sep-Pak®light tC-18), which was purged with water (10 mL). Thereafter, ^68Ga-Triveoctin was eluted with ethanol/water mixture (1:1 by volume, 1 mL), followed by isotonic saline (9 mL). The formulation containing approx. 5% ethanol was passed through a 0.22-µm filter into a sterile injection vial and dispensed for injection. Quality control was done by radio-HPLC using a Shimadzu system equipped with a column Chromolith® Performance RP18e (Phenomenex, Aschaffenburg, Germany), gradient 0–100% acetonitrile in water within 15 min, flow rate 1.4 mL/min, tR = 8.53 min, and met the in-house specifications for ^68Ga-labeled compounds (> 95%).
as §4

[4] = non-radioactive 69/71Ga(III) complexes where applicable, read-out: αvβ8-Integrin affinity IC50 (95% confidence interval)
[5] = female, CB17 SCID, 43 pmol, 1 h

C#CCCC(=O)NCCCC[C@H]1C(=O)NCC(=O)N[C@@H](CC(C)C)C(=O)N[C@@H](CCCNC(=N)N)C(=O)NCC(=O)N[C@@H](CC(=O)O)C(=O)N[C@@H](CC(C)C)C(=O)N2CCC[C@@H]2C(=O)N1C [AvB8-pentynoic amide, cyclo(GLRGDLp(NMe)K(pent-4-ynoic amide))] (cyclo(GLRGDL[dP][NMeK](Pent4ynoyl)))
IC50 (αvβ8-integrin; [4]): 17 nM

CC(C)C[C@@H]1NC(=O)CNC(=O)[C@H](CCCCNC(=O)CCc2cn(CCCNC(=O)CCP(=O)(O)CN3CCN(CP(=O)(O)CCC(=O)O)CCN(CP(=O)(O)CCC(=O)O)CC3)nn2)N(C)C(=O)[C@H]2CCCN2C(=O)[C@H](CC(C)C)NC(=O)[C@H](CC(=O)O)NC(=O)CNC(=O)[C@H](CCCNC(=N)N)NC1=O [^68Ga-TRAP-AvB8, metal not drawn] (cyclo(GLRGDL[dP][NMeK](X2)))
IC50 (αvβ8-integrin): 38 nM | kidney uptake ([1]; 60 min p.i., average): 3.6 %IA/g | tumor uptake upon blockade ([1]; blockade n = 3): 0.25 %IA/g | tumor uptake ([1]; control n = 11): 1.0 %IA/g

CC(C)C[C@@H]1NC(=O)CNC(=O)[C@H](CCCCNC(=O)CCc2cn(CCCNC(=O)CCP(=O)(O)CN3CCN(CP(=O)(O)CCC(=O)NCCCn4cc(CCC(=O)NCCCC[C@H]5C(=O)NCC(=O)N[C@@H](CC(C)C)C(=O)N[C@@H](CCCNC(=N)N)C(=O)NCC(=O)N[C@@H](CC(=O)O)C(=O)N[C@@H](CC(C)C)C(=O)N6CCC[C@@H]6C(=O)N5C)nn4)CCN(CP(=O)(O)CCC(=O)NCCCn4cc(CCC(=O)NCCCC[C@H]5C(=O)NCC(=O)N[C@@H](CC(C)C)C(=O)N[C@@H](CCCNC(=N)N)C(=O)NCC(=O)N[C@@H](CC(=O)O)C(=O)N[C@@H](CC(C)C)C(=O)N6CCC[C@@H]6C(=O)N5C)nn4)CC3)nn2)N(C)C(=O)[C@H]2CCCN2C(=O)[C@H](CC(C)C)NC(=O)[C@H](CC(=O)O)NC(=O)CNC(=O)[C@H](CCCNC(=N)N)NC1=O [^68Ga-Triveoctin, metal not drawn] (I: cyclo(RGDL[dP][NMeK]GL) / II: cyclo(RGDL[dP][NMeK]GL) / III: cyclo(RGDL[dP][NMeK]GL); linker I:6-II:6-III:6 via X1)
Kidneys uptake [2, 5]: 35 %IA/g | Tumor MeWo uptake [2, 5]: 1.9 %IA/g | tumor/adrenals ratio [2]: 5.7 ± 2.3 | tumor/blood ratio [2]: 6.7 | tumor/eye ratio [2]: 1.0 ± 0.2 | tumor/large intestine (empty) ratio [2]: 11.0 ± 1.6 | tumor/liver ratio [2]: 6.8 | tumor/muscle ratio [2]: 29 | tumor/small intestine (empty) ratio [2]: 11.6 ± 3.9 | tissue uptake at 1 h (in vivo; Adrenals uptake): 0.39 ± 0.23 %ID/g | tissue uptake at 1 h (in vivo; Blood uptake): 0.28 ± 0.06 %ID/g | tissue uptake at 1 h (in vivo; Eye uptake): 1.95 ± 0.44 %ID/g | tissue uptake at 1 h (in vivo; Heart (myocard) uptake): 0.16 ± 0.04 %ID/g | tissue uptake at 1 h (in vivo; Kidneys uptake): 35.3 ± 6.3 %ID/g | tissue uptake at 1 h (in vivo; Large intestine (empty) uptake): 0.17 ± 0.03 %ID/g | tissue uptake at 1 h (in vivo; Liver uptake): 0.28 ± 0.06 %ID/g | tissue uptake at 1 h (in vivo; Lung uptake): 0.68 ± 0.19 %ID/g | tissue uptake at 1 h (in vivo; Muscle uptake): 0.07 ± 0.01 %ID/g | tissue uptake at 1 h (in vivo; Pancreas uptake): 0.12 ± 0.02 %ID/g | tissue uptake at 1 h (in vivo; Small intestine (empty) uptake): 0.18 ± 0.09 %ID/g | tissue uptake at 1 h (in vivo; Spleen uptake): 0.23 ± 0.03 %ID/g | tissue uptake at 1 h (in vivo; Stomach (empty) uptake): 0.22 ± 0.07 %ID/g | tissue uptake at 1 h (in vivo; Tumor MeWo uptake): 1.86 ± 0.31 %ID/g | tissue to tissue ratio at 1 h (in vivo; total radioactivity, kidney-to-blood ratio): 126 | tissue to tissue ratio at 1 h (in vivo; total radioactivity, kidney-to-muscle ratio): 505 | tissue to tissue ratio at 1 h (in vivo; tumor/blood ratio): 6.7 ± 0.7 | tissue to tissue ratio at 1 h (in vivo; tumor/heart (myocard) ratio): 11.7 ± 1.7 | tissue to tissue ratio at 1 h (in vivo; tumor/kidneys ratio): 0.1 | tissue to tissue ratio at 1 h (in vivo; tumor/liver ratio): 6.8 ± 1.4 | tissue to tissue ratio at 1 h (in vivo; tumor/lung ratio): 2.8 ± 0.7 | tissue to tissue ratio at 1 h (in vivo; tumor/muscle ratio): 29 ± 6 | tissue to tissue ratio at 1 h (in vivo; tumor/pancreas ratio): 15.7 ± 3.5 | tissue to tissue ratio at 1 h (in vivo; tumor/spleen ratio): 7.9 ± 1.5 | tissue to tissue ratio at 1 h (in vivo; tumor/stomach (empty) ratio): 8.8 ± 2.2 | IC50 (αvβ8-integrin; [4]): 5.7 nM | Dose estimate, Adrenals [3]: 2.69E−02 mGy/MBq | Dose estimate, Brain [3]: 5.23E−03 mGy/MBq | Dose estimate, Breasts [3]: 5.46E−03 mGy/MBq | Dose estimate, Gallbladder wall [3]: 1.00E−02 mGy/MBq | Dose estimate, Heart wall [3]: 1.52E−02 mGy/MBq | Dose estimate, Kidneys [3]: 2.60E−01 mGy/MBq | Dose estimate, LLI wall [3]: 2.08E−02 mGy/MBq | Dose estimate, Liver [3]: 2.43E−02 mGy/MBq | Dose estimate, Lungs [3]: 7.83E−03 mGy/MBq | Dose estimate, Muscle [3]: 7.23E−03 mGy/MBq | Dose estimate, Osteogenic cells [3]: 8.89E−03 mGy/MBq | Dose estimate, Ovaries [3]: 1.13E−02 mGy/MBq | Dose estimate, Pancreas [3]: 2.01E−02 mGy/MBq | Dose estimate, Red marrow [3]: 6.48E−03 mGy/MBq | Dose estimate, Skin [3]: 5.60E−03 mGy/MBq | Dose estimate, Small intestine [3]: 3.52E−02 mGy/MBq | Dose estimate, Spleen [3]: 4.42E−02 mGy/MBq | Dose estimate, Stomach wall [3]: 1.95E−02 mGy/MBq | Dose estimate, Testes [3]: 8.14E−03 mGy/MBq | Dose estimate, Thymus [3]: 6.17E−03 mGy/MBq | Dose estimate, Thyroid [3]: 5.72E−03 mGy/MBq | Dose estimate, Total body [3]: 9.41E−03 mGy/MBq | Dose estimate, ULI wall [3]: 1.57E−02 mGy/MBq | Dose estimate, Urinary bladder wall [3]: 3.42E−01 mGy/MBq | Dose estimate, Uterus [3]: 1.57E−02 mGy/MBq | effective dose (ICRP 60) [3]: 3.00E−02 mSv/MBq | half-life (clinical): 1.8 h | kidney-to-blood ratio (clinical): approx. 15 | kidney-to-muscle ratio (clinical): ~30 | SUV at 1.5 h (clinical; iv, 173 MBq, total radioactivity): 6.1 SUV | tissue to tissue ratio at 1.5 h (clinical; iv, 173 MBq, total radioactivity, kidney-to-blood ratio): 15 | tissue to tissue ratio at 1.5 h (clinical; iv, 173 MBq, total radioactivity, kidney-to-blood ratio, times lower in human than in mice): 8 | tissue to tissue ratio at 1.5 h (clinical; iv, 173 MBq, total radioactivity, kidney-to-muscle ratio): 30 | tissue to tissue ratio at 1.5 h (clinical; iv, 173 MBq, total radioactivity, kidney-to-muscle ratio, times lower in human than in mice): 16
